The target of test [1] is T1, Human CD27 ECD truncated (ECD 1-121, cleavage site, His6) (human).
T1 construct: also called human CD27 ECD with His Tag; CD27-His
T1 chain: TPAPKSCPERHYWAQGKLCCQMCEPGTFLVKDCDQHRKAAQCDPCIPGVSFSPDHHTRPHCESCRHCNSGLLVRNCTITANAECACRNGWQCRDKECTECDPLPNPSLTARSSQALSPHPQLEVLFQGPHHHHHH
Description: ProteOn SPR, culture supernatants.

The target in test [2] is T1, Human CD27 ECD truncated (ECD 1-121, …). Description: ProteOn SPR, purified mAb, CD27-His.
In test [3] the target is T2, Human CD27 ECD (ECD 1-173, His6) (human, UniProt P26842 21-193, biotinylated on amine residues (NHS-ester) where used biotinylated).
T2 construct: also called biotinylated human CD27 ECD
Briefly: Fab ELISA; Fab captured by anti-Fd, biotinylated CD27 ECD at 0.2 nM. (An ELISA detects its analyte on a solid surface through an enzyme-linked reagent.)

Some results are limits rather than exact numbers.

B1: M159 (antibody, human IgG4, V domains shown)
VH: QVQLVQSGAEVKKPGASVKVSCKASGYAFSSSWMNWVRQAPGQGLEWMGRIYPGDGDTNYNGKFKGRVTMTRDTSTSTVYMELSSLRSEDTAVYYCARSDYYGDYGFAYWGQGTLVTVSS
VL: DIQMTQSPSSLSASVGDRVTITCKASQSVDYAGDSYMNWYQQKPGKAPKLLIYAASNLESGVPSRFSGSGSGTDFTLTISSLQPEDFATYYCQQSNEDPYTFGQGTKVEIK
notes: also called H25,L220; parental mAb
One may read the Kd as the free concentration of one partner at which half of the binding sites on the other are occupied at equilibrium, for simple one-to-one binding. A high value points to weaker binding. In turn, B1 registered a Kd in test [1] of 2230 pM.

B2: M161 (antibody, human IgG4, V domains shown)
VH: QVQLVQSGAEVKKPGASVKVSCKASGYAFSSSWMNWVRQAPGQGLEWMGRIYSGDGDTNYNGKFKGRVTMTRDTSTSTVYMELSSLRSEDTAVYYCARSDYYGDYGFAYWGQGTLVTVSS
VL: DIQMTQSPSSLSASVGDRVTITCKASQSVDYFGDSLMNWYQQKPGKAPKLLIYAASNLESGVPSRFSGSGSGTDFTLTISSLQPEDFATYYCQQSNEDPYTFGQGTKVEIK
notes: also called H196,L218
For the molecule B2, binding in test [1] was characterised by a dissociation constant (Kd) of 1340 pM.

B3: M154 (antibody, human IgG4, V domains shown)
VH: QVQLVQSGAEVKKPGASVKVSCKASGYAFSSSWMNWVRQAPGQGLEWMGRIYPGDGDTNYNGKFKGRVTMTRDTSTSTVYMELSSLRSEDTAVYYCARSDYYGDYGFAYWGQGTLVTVSS
VL: DIQMTQSPSSLSASVGDRVTITCKASQSVDYFRTSFMNWYQQKPGKAPKLLIYAASNLESGVPSRFSGSGSGTDFTLTISSLQPEDFATYYCQQSNEDPYTFGQGTKVEIK
notes: also called H25,L221
B3 gave a Kd in test [1] of 1560 pM.

B4: M673 (antibody, V domains shown)
VH: QVQLVQSGAEVKKPGASVKVSCKASGYAFSSSWMNWVRQAPGQGLEWMGRIYSGDADTNYNQKFKGRVTMTRDTSTSTVYMELSSLRSEDTAVYYCARSDYYGDYGFAYWGQGTLVTVSS
VL: DIQMTQSPSSLSASVGDRVTITCKASQSVDYAHESFMNWYQQKPGKAPKLLIYAASNLESGVPSRFSGSGSGTDFTLTISSLQPEDFATYYCQQSNEDPYTFGQGTKVEIK
notes: isotype not restated (path 2); also called H256,L217
A word on the koff: it is a measure of how fast the partners let go of each other. The low end stands for a long-lived complex, the high end for a short-lived complex. Usually kon stands for a measure of how fast the partners come together. A high value points to fast association. In test [2], B4 registered a Kd of 100 pM, a koff of 0.000189 s⁻¹ and an on-rate (kon) of 1.89e+06 M⁻¹ s⁻¹.

B5: M152 (antibody, human IgG4, V domains shown)
VH: QVQLVQSGAEVKKPGASVKVSCKASGYAFSSSWMNWVRQAPGQGLEWMGRIYPGDGDTNYNGKFKGRVTMTRDTSTSTVYMELSSLRSEDTAVYYCARSDYYGDYGFAYWGQGTLVTVSS
VL: DIQMTQSPSSLSASVGDRVTITCKASQSVDYWSDSFMNWYQQKPGKAPKLLIYAASNLESGVPSRFSGSGSGTDFTLTISSLQPEDFATYYCQQSNEDPYTFGQGTKVEIK
notes: also called H25,L223
In test [1], B5 yielded a Kd of 1540 pM.

B6: M151 (antibody, human IgG4, V domains shown)
VH: QVQLVQSGAEVKKPGASVKVSCKASGYAFSSSWMNWVRQAPGQGLEWMGRIYPGDGDTNYNGKFKGRVTMTRDTSTSTVYMELSSLRSEDTAVYYCARSDYYGDYGFAYWGQGTLVTVSS
VL: DIQMTQSPSSLSASVGDRVAITCKASQSVDYYNSSFMNWYQQKPGKAPKLLIYAASNLESGVPSRFSGSGSGTDFTLTISSLQPEDFATYYCQQSNEDPYTFGQGTKVEIK
notes: also called H25,L224
In turn, B6 returned a Kd in test [1] of 1070 pM.

B7: M669 (antibody, V domains shown)
VH: QVQLVQSGAEVKKPGASVKVSCKASGYAFSSSWMNWVRQAPGQGLEWMGRIYSGDADTNYNQKFKGRVTMTRDTSTSTVYMELSSLRSEDTAVYYCARSDYYGDYGFAYWGQGTLVTVSS
VL: DIQMTQSPSSLSASVGDRVTITCKASQSVDYAGESFMNWYQQKPGKAPKLLIYAASNLESGVPSRFSGSGSGTDFTLTISSLQPEDFATYYCQQSNEDPYTFGQGTKVEIK
notes: isotype not restated (path 2); also called H256,L266
In test [2], B7 registered a Kd of 58 pM, a koff of 0.000145 s⁻¹ and a kon of 2.49e+06 M⁻¹ s⁻¹.

B8: M165 (antibody, human IgG4, V domains shown)
VH: QVQLVQSGAEVKKPGASVKVSCKASGYAFSSSWMNWVRQAPGQGLEWMGRIYSGDGDTNYNGKFKGRVTMTRDTSTSTVYMELSSLRSEDTAVYYCARSDYYGDYGFAYWGQGTLVTVSS
VL: DIQMTQSPSSLSASVGDRVTITCKASQSVDYFRTSFMNWYQQKPGKAPKLLIYAASNLESGVPSRFSGSGSGTDFTLTISSLQPEDFATYYCQQSNEDPYTFGQGTKVEIK
notes: also called H196,L221
As to B8, in test [1], the Kd is 180 pM.

B9: M153 (antibody, human IgG4, V domains shown)
VH: QVQLVQSGAEVKKPGASVKVSCKASGYAFSSSWMNWVRQAPGQGLEWMGRIYPGDGDTNYNGKFKGRVTMTRDTSTSTVYMELSSLRSEDTAVYYCARSDYYGDYGFAYWGQGTLVTVSS
VL: DIQMTQSPSSLSASVGDRVTITCKASQSVDYVGTSFMNWYQQKPGKAPKLLIYAASNLESGVPSRFSGSGSGTDFTLTISSLQPEDFATYYCQQSNEDPYTFGQGTKVEIK
notes: also called H25,L222
As to B9, the Kd in test [1] was 1410 pM.

B10: M672 (antibody, V domains shown)
VH: QVQLVQSGAEVKKPGASVKVSCKASGYAFSSSWMNWVRQAPGQGLEWMGRIYSGDADTNYAQKFKGRVTMTRDTSTSTVYMELSSLRSEDTAVYYCARSDYYGDYGFAYWGQGTLVTVSS
VL: DIQMTQSPSSLSASVGDRVTITCKASQSVDYAHESFMNWYQQKPGKAPKLLIYAASNLESGVPSRFSGSGSGTDFTLTISSLQPEDFATYYCQQSNEDPYTFGQGTKVEIK
notes: isotype not restated (path 2); also called H255,L217
In test [2], B10 registered a Kd of 144 pM, a koff of 0.000264 s⁻¹ and a kon of 1.83e+06 M⁻¹ s⁻¹.

B11: M164 (antibody, human IgG4, V domains shown)
VH: QVQLVQSGAEVKKPGASVKVSCKASGYAFSSSWMNWVRQAPGQGLEWMGRIYSGDGDTNYNGKFKGRVTMTRDTSTSTVYMELSSLRSEDTAVYYCARSDYYGDYGFAYWGQGTLVTVSS
VL: DIQMTQSPSSLSASVGDRVTITCKASQSVDYVGTSFMNWYQQKPGKAPKLLIYAASNLESGVPSRFSGSGSGTDFTLTISSLQPEDFATYYCQQSNEDPYTFGQGTKVEIK
notes: also called H196,L222
Consider B11, for which binding in test [1] was put at a Kd of 270 pM.

B12: M150 (antibody, human IgG4, V domains shown)
VH: QVQLVQSGAEVKKPGASVKVSCKASGYAFSSSWMNWVRQAPGQGLEWMGRIYPGDGDTNYNGKFKGRVTMTRDTSTSTVYMELSSLRSEDTAVYYCARSDYYGDYGFAYWGQGTLVTVSS
VL: DIQMTQSPSSLSASVGDRVTITCKASQSVDYFGDSLMNWYQQKPGKAPKLLIYAASNLESGVPSRFSGSGSGTDFTLTISSLQPEDFATYYCQQSNEDPYTFGQGTKVEIK
notes: also called H25,L218
In test [1], B12 yielded a Kd of 4040 pM.

B13: M162 (antibody, human IgG4, V domains shown)
VH: QVQLVQSGAEVKKPGASVKVSCKASGYAFSSSWMNWVRQAPGQGLEWMGRIYSGDGDTNYNGKFKGRVTMTRDTSTSTVYMELSSLRSEDTAVYYCARSDYYGDYGFAYWGQGTLVTVSS
VL: DIQMTQSPSSLSASVGDRVAITCKASQSVDYYNSSFMNWYQQKPGKAPKLLIYAASNLESGVPSRFSGSGSGTDFTLTISSLQPEDFATYYCQQSNEDPYTFGQGTKVEIK
notes: also called H196,L224
For B13, the Kd in test [1] stood at 430 pM.

B14: M163 (antibody, human IgG4, V domains shown)
VH: QVQLVQSGAEVKKPGASVKVSCKASGYAFSSSWMNWVRQAPGQGLEWMGRIYSGDGDTNYNGKFKGRVTMTRDTSTSTVYMELSSLRSEDTAVYYCARSDYYGDYGFAYWGQGTLVTVSS
VL: DIQMTQSPSSLSASVGDRVTITCKASQSVDYWSDSFMNWYQQKPGKAPKLLIYAASNLESGVPSRFSGSGSGTDFTLTISSLQPEDFATYYCQQSNEDPYTFGQGTKVEIK
notes: also called H196,L223
On to B14, for which binding in test [1] was put at a Kd of 300 pM.

B15: M670 (antibody, V domains shown)
VH: EVQLVQSGAEVKKPGESLKISCKGSGYAFSSSWMNWVRQMPGKGLEWMGRIYSGDADTNYAQKFKGQVTISADKSISTAYLQWSSLKASDTAMYYCARSDYYGDYGFAYWGQGTLVTVSS
VL: DIQMTQSPSSLSASVGDRVTITCKASQSVDYAGESFMNWYQQKPGKAPKLLIYAASNLESGVPSRFSGSGSGTDFTLTISSLQPEDFATYYCQQSNEDPYTFGQGTKVEIK
notes: isotype not restated (path 2); also called H257,L266
In test [2], B15 registered a Kd of 65 pM, a dissociation rate constant (koff) of 0.000113 s⁻¹ and a kon of 1.73e+06 M⁻¹ s⁻¹.

B16: M69-derived Fab with VH H239 (Fab, V domains shown)
VH: EVQLVQSGAEVKKPGESLKISCKGSGYAFSSSWMNWVRQMPGKGLEWMGRIYAGDGDTNYSPSFQGQVTISADKSISTAYLQWSSLKASDTAMYYCARSDYYGDYGFAYWGQGTLVTVSS
VL: DIVMTQSPDSLAVSLGERATINCKASQSVDYAGDSYMNWYQQKPGQPPKLLIYAASNLESGVPDRFSGSGSGTDFTLTISSLQAEDVAVYYCQQSNEDPYTFGQGTKLEIK
notes: clone of library C27H28L2; pairing with parent L35 inferred
As to B16, the “percent binding of the parent” value in test [3] was at least 100%.

B17: M69-derived Fab with VH H238 (Fab, V domains shown)
VH: EVQLVQSGAEVKKPGESLKISCKGSGYAFSSSWMNWVRQMPGKGLEWMGRIYVGDGDTNYSPSFQGQVTISADKSISTAYLQWSSLKASDTAMYYCARSDYYGDYGFAYWGQGTLVTVSS
VL: DIVMTQSPDSLAVSLGERATINCKASQSVDYAGDSYMNWYQQKPGQPPKLLIYAASNLESGVPDRFSGSGSGTDFTLTISSLQAEDVAVYYCQQSNEDPYTFGQGTKLEIK
notes: as for B16
In the case of B17, in test [3], the “percent binding of the parent” value is at least 100%.

B18: M69-derived Fab with VH H236 (Fab, V domains shown)
VH: EVQLVQSGAEVKKPGESLKISCKGSGYAFSSSWMNWVRQMPGKGLEWMGRIYPGDGDTNYSPSFQGQVTISADKSISTAYLQWSSLKASDTAMYYCARADYYGDYGFGYWGQGTLVTVSS
VL: DIVMTQSPDSLAVSLGERATINCKASQSVDYAGDSYMNWYQQKPGQPPKLLIYAASNLESGVPDRFSGSGSGTDFTLTISSLQAEDVAVYYCQQSNEDPYTFGQGTKLEIK
notes: clone of library C27H28L3; pairing with the parent L35 light chain is inferred from the library design
On to B18, for which the “percent binding of the parent” value in test [3] was at least 100%.

B19: M69-derived Fab with VH H237 (Fab, V domains shown)
VH: EVQLVQSGAEVKKPGESLKISCKGSGYAFSSSWMNWVRQMPGKGLEWMGRIFVRDGDTNYSPSFQGQVTISADKSISTAYLQWSSLKASDTAMYYCARSDYYGDYGFAYWGQGTLVTVSS
VL: DIVMTQSPDSLAVSLGERATINCKASQSVDYAGDSYMNWYQQKPGQPPKLLIYAASNLESGVPDRFSGSGSGTDFTLTISSLQAEDVAVYYCQQSNEDPYTFGQGTKLEIK
notes: as for B16
With B19, the “percent binding of the parent” value in test [3] was at least 100%.

The values are drawn from patent US20130243795A1 (Janssen / Centocor, published 2013).
